Source: article PMC10821498, “Radiosynthesis Standardization and Preclinical Assessment of the [^68Ga]Ga-DOTA-Ubiquicidin29-41: A Translational Study Targeting Differential Diagnosis of Infectious Processes” (Pharmaceuticals, 2023)
Where a SMILES comes first, the peptide text is derived from it. The star is where a group is joined. DOTA = O=C(O)CN1CCN(CC(=O)O)CCN(CC(=O)*)CCN(CC(=O)O)CC1

Experiments:
[1] = assay type: physicochemical
Description: The n-octanol/water partition coefficient (P) of [^68Ga]Ga-DOTA-UBI29-41 was determined using the shake-flask method described elsewhere. A 50 µL aliquot (~2 MBq) of the final product was added to a mixture of n-octanol/water (1:1). The tubes containing the mixture were shaken and centrifugated at 5000× g for 5 min in a Minispin® plus centrifuge (Eppendorf AG, Hamburg, Germany). Then, they were let to rest until complete separation of the phases occurred. After that, samples of 100 μL were taken from each phase. Radioactivity in the aliquots was quantified in an automated Wizard^2™ 3” 2480 gamma counter (PerkinElmer, Shelton, CT, USA). From there, the logarithm of P was determined from the ratio of the activity in organic phase to that in the aqueous phase.

in vitro = in vitro ADME, rodent; settings: rodent, serum
Description: (§1) SPB was determined via incubation of 50 μL of [^68Ga]Ga-DOTA-UBI29-41 with 450 μL of rodent serum at 37 °C and under gentle shaking at 450× g. At 30 and 60 min, proteins were separated via ultracentrifugation at 14,000× g using Amicon® 10 kDa filters (Merck Millipore, São Paulo, Brazil). The supernatant and pellet were conditioned in microtubes and their radioactivity was quantified in an automated gamma counter. The percentage of SPB was defined by the ratio between the radioactivity in the pellet and the total radioactivity, given by the sum of the radioactivities of the pellet and the supernatant.

rodent serum proteins = test: in vitro; assay type: in vitro ADME
Description: as §1

[2] = test system: methicillin-resistant Staphylococcus aureus (MRSA); assay type: in vivo; settings: healthy and MRSA-infected BALB/c mice, 30 and 60 min after i.v. administration, n = 5 per time point
Description: The MRSA bacterial strain was prepared in two steps: pre-inoculum and inoculum. In the pre-inoculum phase, 10 mL of Luria Bertani (LB) medium and 20 μL of ampicillin (500 mg/mL) were added to MRSA (50–100 IU). The mixture was maintained overnight at 37 °C and under shaking at 200× g. In the inoculum phase, 20 mL of LB medium, 500 μL of the pre-inoculum preparation content and 40 μL of ampicillin (500 mg/mL) were combined. This new product was maintained at 37 °C and under shaking at 200× g until it reached an absorbance of 0.8–1.0. This quantification was carried out with an LGI-VS-721N spectrophotometer (LGI Scientific, São Paulo, Brazil). At this point, the content was manually homogenized and 1 mL samples were separated for centrifugation at 14,000× g for 5 min. Supernatants were removed and pellets were resuspended in 100 μL of PBS containing 10^9 CFU.
Male BALB/c mice aged between 6 and 8 weeks were used in this work. […]
For the ex vivo biodistribution study, [^68Ga]Ga-DOTA-UBI29-41 was administered intravenously through the caudal vein of the mice (~5 MBq/100 μL) in control and infected animals. […] Organs were removed and weighed, and the radioactivity was quantified in a gamma counter. Percentages of injected activity per gram of organ (% IA/g) were determined, as well as the ratio of target (right tight muscle) to non-target (left tight muscle).

For `CSCC[C@H](NC(=O)[C@H](CCCNC(=N)N)NC(=O)[C@H](CCCNC(=N)N)NC(=O)[C@H](CCCCN)NC(=O)[C@H](C)NC(=O)[C@H](CCCNC(=N)N)NC(=O)CNC(=O)[C@@H](NC(=O)CN1CCN(CC(=O)O)CCN(CC(=O)O)CCN(CC(=O)O)CC1)[C@@H](C)O)C(=O)N[C@@H](CCC(N)=O)C(=O)N[C@@H](Cc1ccc(O)cc1)C(=O)N[C@@H](CC(N)=O)C(=O)N[C@@H](CCCNC(=N)N)C(=O)N[C@@H](CCCNC(=N)N)C(=O)O` [[^68Ga]Ga-DOTA-UBI29-41, [^68Ga]Ga-DOTA-Ubiquicidin29-41, metal not drawn] ({DOTA}-TGRAKRRMQYNRR-OH), the “Log P” value [1] was “–3.63 ± 0.17”, the fraction unbound at 30 min (in vitro) was 0.398 and the fraction unbound at 60 min (in vitro) was 0.559. For the same compound, the “Binding to rodent serum proteins (SPB)” value (rodent serum proteins) was 60% and the “Blood clearance and excretion” value [2] was “fast blood depuration with urinary excretion”.
